Test system: Escherichia coli TOP10
Assay: shrunken log2 fold change of peptide-encoding DNA abundance (4.5 h post-induction vs induction); higher = less antimicrobial activity (less host growth inhibition)
Conditions: time post-induction: 4.5 h; library: site-saturation at positions 5, 18, 19, 20
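Also: peptides expressed intracellularly from a pBAD plasmid library in pooled LB shake-flask culture, induced with 0.3% L-arabinose, DNA abundance read by NGS, three biological replicates, DESeq2 with apeglm shrinkage.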

Row | Sequence | shrunken log2 fold change
1 | RRIRPRPPRLPRPRPRPLPVPRP | -0.4
2 | RRIRPRPPRLPRPRPRPLQIPRP | -0.161
3 | RRIRPRPPRLPRPRPRPLQVPRP | 0.013
4 | RRIRPRPPRLPRPRPRPLRSPRP | 0.167
5 | RRIRPRPPRLPRPRPRPLSHPRP | -0.27
6 | RRIRPRPPRLPRPRPRPLTEPRP | 0.0389
7 | RRIRPRPPRLPRPRPRPLTFPRP | -0.113
8 | RRIRPRPPRLPRPRPRPLTNPRP | -0.521
9 | RRIRPRPPRLPRPRPRPLTWPRP | 0.0214
10 | RRIRPRPPRLPRPRPRPLVNPRP | -0.549
11 | RRIRPRPPRLPRPRPRPLWHPRP | -0.0751
12 | RRIRPRPPRLPRPRPRPLWKPRP | 0.0546
13 | RRIRPRPPRLPRPRPRPLWMPRP | 0.0937
14 | RRIRPRPPRLPRPRPRPLYKPRP | -0.247
15 | RRIRPRPPRLPRPRPRPMCEPRP | -0.0631
16 | RRIRPRPPRLPRPRPRPMCKPRP | -0.274
17 | RRIRPRPPRLPRPRPRPMCQPRP | 0.27
18 | RRIRPRPPRLPRPRPRPMDKPRP | -0.0612
19 | RRIRPRPPRLPRPRPRPMEHPRP | -0.0171
20 | RRIRPRPPRLPRPRPRPMEPPRP | -0.153
21 | RRIRPRPPRLPRPRPRPMFAPRP | -0.0605
22 | RRIRPRPPRLPRPRPRPMGQPRP | 0.0687

Row | Sequence | shrunken log2 fold change
23 | RRIRPRPPRLPRPRPRPMHFPRP | 0.015
24 | RRIRPRPPRLPRPRPRPMHIPRP | -0.105
25 | RRIRPRPPRLPRPRPRPMHQPRP | 0.059
26 | RRIRPRPPRLPRPRPRPMHWPRP | 0.335
27 | RRIRPRPPRLPRPRPRPMIHPRP | -0.696
28 | RRIRPRPPRLPRPRPRPMINPRP | -0.179
29 | RRIRPRPPRLPRPRPRPMKGPRP | 0.15
30 | RRIRPRPPRLPRPRPRPMKNPRP | 0.212
31 | RRIRPRPPRLPRPRPRPMLDPRP | 0.071
32 | RRIRPRPPRLPRPRPRPMLYPRP | -0.0392
33 | RRIRPRPPRLPRPRPRPMMFPRP | -0.213
34 | RRIRPRPPRLPRPRPRPMMPPRP | -0.141
35 | RRIRPRPPRLPRPRPRPMNAPRP | -0.158
36 | RRIRPRPPRLPRPRPRPMNKPRP | -0.551
37 | RRIRPRPPRLPRPRPRPMPWPRP | 0.215
38 | RRIRPRPPRLPRPRPRPMQCPRP | 0.00596
39 | RRIRPRPPRLPRPRPRPMQDPRP | 0.0218
40 | RRIRPRPPRLPRPRPRPMQIPRP | 0.114
41 | RRIRPRPPRLPRPRPRPMQMPRP | 0.00304
42 | RRIRPRPPRLPRPRPRPMRWPRP | 0.707
43 | RRIRPRPPRLPRPRPRPMRYPRP | 0.0689
44 | RRIRPRPPRLPRPRPRPMSCPRP | -0.043

Row | Sequence | shrunken log2 fold change
45 | RRIRPRPPRLPRPRPRPMVTPRP | -0.0789
46 | RRIRPRPPRLPRPRPRPMYCPRP | -0.0366
47 | RRIRPRPPRLPRPRPRPMYRPRP | -0.752
48 | RRIRPRPPRLPRPRPRPNAKPRP | -0.0129
49 | RRIRPRPPRLPRPRPRPNCLPRP | -0.0395
50 | RRIRPRPPRLPRPRPRPNCQPRP | 0.419
51 | RRIRPRPPRLPRPRPRPNCSPRP | -0.132
52 | RRIRPRPPRLPRPRPRPNFGPRP | 0.26
53 | RRIRPRPPRLPRPRPRPNGPPRP | -0.027
54 | RRIRPRPPRLPRPRPRPNHLPRP | -0.601
55 | RRIRPRPPRLPRPRPRPNKNPRP | -0.24
56 | RRIRPRPPRLPRPRPRPNLQPRP | 0.0751
57 | RRIRPRPPRLPRPRPRPNMDPRP | -0.674
58 | RRIRPRPPRLPRPRPRPNMYPRP | -0.746
59 | RRIRPRPPRLPRPRPRPNNEPRP | -0.504
60 | RRIRPRPPRLPRPRPRPNNTPRP | -0.312
61 | RRIRPRPPRLPRPRPRPNPIPRP | -0.237
62 | RRIRPRPPRLPRPRPRPNPNPRP | 0.367
63 | RRIRPRPPRLPRPRPRPNQCPRP | -0.0767
64 | RRIRPRPPRLPRPRPRPNQPPRP | 0.0225
65 | RRIRPRPPRLPRPRPRPNRAPRP | 0.371
66 | RRIRPRPPRLPRPRPRPNSIPRP | -0.254

Row | Sequence | shrunken log2 fold change
67 | RRIRPRPPRLPRPRPRPNTRPRP | -0.112
68 | RRIRPRPPRLPRPRPRPNTVPRP | -0.411
69 | RRIRPRPPRLPRPRPRPNVCPRP | -0.169
70 | RRIRPRPPRLPRPRPRPNWSPRP | 0.0504
71 | RRIRPRPPRLPRPRPRPNYRPRP | -0.451
72 | RRIRPRPPRLPRPRPRPPAAPRP | 0.54
73 | RRIRPRPPRLPRPRPRPPAFPRP | 0.166
74 | RRIRPRPPRLPRPRPRPPCAPRP | 0.925
75 | RRIRPRPPRLPRPRPRPPCKPRP | 0.19
76 | RRIRPRPPRLPRPRPRPPCYPRP | 0.0837
77 | RRIRPRPPRLPRPRPRPPDPPRP | 0.742
78 | RRIRPRPPRLPRPRPRPPECPRP | 0.338
79 | RRIRPRPPRLPRPRPRPPEMPRP | 0.426
80 | RRIRPRPPRLPRPRPRPPEYPRP | -0.558
81 | RRIRPRPPRLPRPRPRPPFWPRP | 0.767
82 | RRIRPRPPRLPRPRPRPPGKPRP | 0.335
83 | RRIRPRPPRLPRPRPRPPGMPRP | 0.501
84 | RRIRPRPPRLPRPRPRPPGQPRP | 0.141
85 | RRIRPRPPRLPRPRPRPPHGPRP | 0.374
86 | RRIRPRPPRLPRPRPRPPHTPRP | 0.398
87 | RRIRPRPPRLPRPRPRPPILPRP | -0.000706
88 | RRIRPRPPRLPRPRPRPPIRPRP | 0.41

Row | Sequence | shrunken log2 fold change
89 | RRIRPRPPRLPRPRPRPPKPPRP | 0.0495
90 | RRIRPRPPRLPRPRPRPPKTPRP | 0.246
91 | RRIRPRPPRLPRPRPRPPLWPRP | 1.75
92 | RRIRPRPPRLPRPRPRPPREPRP | 0.678
93 | RRIRPRPPRLPRPRPRPPRTPRP | 0.609
94 | RRIRPRPPRLPRPRPRPPSGPRP | 0.527
95 | RRIRPRPPRLPRPRPRPPTCPRP | 0.051
96 | RRIRPRPPRLPRPRPRPPVFPRP | 0.308
97 | RRIRPRPPRLPRPRPRPPVWPRP | 0.27
98 | RRIRPRPPRLPRPRPRPQAEPRP | 0.113
99 | RRIRPRPPRLPRPRPRPQAFPRP | -0.00213
100 | RRIRPRPPRLPRPRPRPQAGPRP | 0.00187
101 | RRIRPRPPRLPRPRPRPQATPRP | -0.2
102 | RRIRPRPPRLPRPRPRPQCLPRP | 0.0368
103 | RRIRPRPPRLPRPRPRPQCTPRP | -0.0867
104 | RRIRPRPPRLPRPRPRPQCYPRP | -0.44
105 | RRIRPRPPRLPRPRPRPQDKPRP | -0.00457
106 | RRIRPRPPRLPRPRPRPQEAPRP | 0.0203
107 | RRIRPRPPRLPRPRPRPQEIPRP | 0.017
108 | RRIRPRPPRLPRPRPRPQENPRP | -0.125
109 | RRIRPRPPRLPRPRPRPQEPPRP | 0.265
